# Results published in patent publication US6306832, “Peptide antiestrogen compositions and methods for treating breast cancer” (University of California).
# B1: vitellogenin A2 ERE 27-bp probe (dsDNA)
# DNA 1: GATCCTAGAGGTCACAGTGACCTACGA
# DNA 2: TCGTAGGTCACTGTGACCTCTAGGATC
# Molecular target: estrogen receptor alpha (ER), purified recombinant (Homo sapiens, UniProt P03372 P03372:1-595)
# Experiment: EMSA; 60 nM ER, 100 nM estradiol, HEPES pH 7.5, 100 mM KCl, 1 mM EDTA, poly(dI-dC), 4 C; competed by 100x unlabelled ERE; blocked by 0.5 uM pY8/pY10/mY8 peptides, not by conY
# Conditions: tags: Panvera (Madison, WI); chain copies: 2 (homodimer, stated); label: 32P 5'-end (polynucleotide kinase)
# Procedure: FIG. 6B. Purified human ER (60 nM) was incubated with control solution (CON), a 100-fold molar excess of unlabelled ERE (100 ERE) or with peptides at 250 nM or 500 nM. ER was incubated with peptides for 15 min at 4° C. followed by addition of 100 nM estradiol-17β and ^32P-ERE. Peptides included phosphotyrosyl-octapeptide (pY8), control non-phosphorylated octapeptide (conY), malonyltyrosyl-octapeptide(mY8), phosphotyrosine amino acid alone (pY), as an additional control, and a phosphotyrosyl-decapeptide, N-Val-Pro-Leu-pTyr-Asp-Leu-Leu-Leu-Glu-Met-C (pYl 0) (SEQ ID NO:3). Although not shown, the effect of conY at 500 nM was the same as that shown at a concentration of 250 nM.
# Interaction of ER with nuclear ERE is prerequisite for activation of transcription. To assess the specific binding of ER with ERE, purified recombinant human ER from MCF-7 breast cancer cells were used. A double-stranded 27-bp probe (5'-[…]-3') (SEQ ID NO:12) encoding the Xenopus vitellogenin A_2 ERE was ^32P-end-labeled with polynucleotide kinase. Gel mobility shift assays for the human ER were performed as described (Arnold et al., 1995a; Arnold and Notides, 1995; Arnold et al., 1995b). […]
# Sequence of estrogen receptor alpha (ER), purified recombinant (P03372 whole entry, one chain of several): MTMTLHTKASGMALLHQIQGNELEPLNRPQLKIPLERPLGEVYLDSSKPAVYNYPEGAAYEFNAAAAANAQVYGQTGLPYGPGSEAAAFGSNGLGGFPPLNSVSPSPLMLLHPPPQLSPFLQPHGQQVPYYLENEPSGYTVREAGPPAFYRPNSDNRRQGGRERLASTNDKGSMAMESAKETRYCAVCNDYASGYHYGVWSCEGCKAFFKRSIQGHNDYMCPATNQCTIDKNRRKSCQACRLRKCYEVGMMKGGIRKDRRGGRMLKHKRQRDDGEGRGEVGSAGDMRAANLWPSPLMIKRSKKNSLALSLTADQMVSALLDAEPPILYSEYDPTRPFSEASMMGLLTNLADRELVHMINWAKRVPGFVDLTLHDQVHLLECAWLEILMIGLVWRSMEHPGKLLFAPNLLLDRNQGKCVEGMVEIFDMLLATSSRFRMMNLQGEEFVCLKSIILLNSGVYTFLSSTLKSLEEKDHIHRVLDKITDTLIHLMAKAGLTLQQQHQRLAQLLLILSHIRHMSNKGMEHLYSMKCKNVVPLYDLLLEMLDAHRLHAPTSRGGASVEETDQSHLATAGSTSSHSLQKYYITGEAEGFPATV
binder,measurement,value
B1,binding result,binds
